# Experimental data: article doi:10.1101/2021.08.08.454510
# Biological target: fluorophore-conjugated GCK peptide (aa 59-74), wild type (human) (UniProt P35557)
# Test: fluorescence polarisation
substance,measurement,value
TNKS ARC1-5 with a C-terminal (His)6 tag (from UniProt O95271 1-1327) (domain or fragment),Kd,500 nM
